# Target: SARS-CoV-2 NTD (SARS-CoV-2, UniProt P0DTC2 14-305)
row,Binder,Kd [nM]
1,"53182-4 (antibody, V domains shown) VH: QITLEESGPTLVTPTQTLTLTCSFSGFSLDTIGVAVAWIRQPPGKALEWLGTVFWDYDKRYSPPLSSRLTVIKDTSQQYVVLRLTDVGPGDTATYYCARLLIEHDAFDIWGQGAVVIVSS VL: DVVVTQSPVSLPATPGEPASISCRASQSLLHRNGKHYLHWYLQRPGQSPQLLIYLGSNRASGVPDRFSGSGSGTVFSLKISRVEAEDVGIYYCMQALHFPYTFGQGTKLDIK",2.28
2,"53181-1 (antibody, V domains shown) VH: QVQLVQSGAEVKKPGASVKVSCKASGYTFTNYVLTWVRQAPGQGLEWMGWISAYNGSTNYAQNLQGRVTMTTDTSTSTAYMELRSLRSDDTAVYYCARDPASYYDFWSGYVDYYYYGMDVWGQGTTVTVSS VL: ELVLTQSPGTLSLSPGERATLSCRASQSVSSSYLAWYQQKPGQAPRLLIYSASSRATGIPDRFSGSGSGTDFTLTISRLEPEDFAVYYCQQYGNSRLTFGPGTKVDIK",1.17
3,"53181-2 (antibody, V domains shown) VH: QVQLVQSGAEVKKPGASVKVSCKASGYTFTSYSINWVRQAPGQGLEWMGWISAYNGSTNYAQKLQGRVTMTTDTSTSTAYMELRSLRSDDTAVYYCARDPASYYDLWSGYVDYYYYGMDVWGQGTTVTVSS VL: EIVLTQSPGTLSLSPGERATLSCRASQSVSSSYLAWYQQKPGQAPRLLIYGASSRATGIPDRFSGSGSGTDFTLTISRLEPEDFAVYYCHHYGSSRLTFGPGTKVDIK",31.3

# Target: SARS-CoV-2 RBD (SARS-CoV-2, UniProt P0DTC2 319-541)
row,Binder,Kd [nM]
1,"5317-3 (antibody, V domains shown) VH: EVQLVESGGGLVQPGGSLRLSCSASGFTFSSYPMYWVRQAPGIGLEYVSGITDNGGSTYYGDSVKGRFTISRDNSKNTLNLQMNNLRTEDTAVYYCVKGKIQLWLGADYWGQGTLVTVSS VL: DIQMTQSPSSLSASVGDRVTITCRANQTISSYLNWYQQKPGKAPKVLIFAASSLEGGVPSRFSGSGSGTDFTLTISSLQPEDFATYSCQQSYNTPWTFGQGTKVEIK",1.92
2,"53182-11 (antibody, V domains shown) VH: EVQLVEFGGGLVQPGRSLRLSCATSGFTFEDFDMHWVRQAPGKGLEWVSGSTWNSGIIGYADSVKGRFTTSRDNAKNSLYMQMNNLREEDTALYYCAKDIGRYDHYNIFGRVGGAFDIWGQGTMVTVSS VL: DIQMTQSPSSLSASVGDRVTISCQTSQDISVSLNWYQQKPGKPPKVLIYDASNLEAGAPSRFSGSGSGTDFTFTISSLQPEDIATYYCQHYDNLPRFGPGTKVDIK",3.18
3,"53182-8 (antibody, V domains shown) VH: QLQLQESGPGLVKPSETLSLTCTVSGGSISSSSYYWGWIRQPPGKGLEWIGTIYYSGSTYYNPSLKSRVTISVDTSKTQFSLKLSSVTAADTAVYYCARDRRGGGWTASFDFWGQGTLVTVSS VL: not shown",16.5
4,"5317-2 (antibody, V domains shown) VH: QVQLVQSGAEVKKPGSSVKVSCKVSGGTFSSYTIIWVRQAPGQGLEWMGRVIPVVHITHYAQRFRGRVTISADKSTSTAYMELSSLRSEDTAVYYCARGLWFGDSETVWFDPWGQGTLVTVSS VL: DIQMTQSPSSLSASVGDRVTITCRASQNITYYLNWYQQKPGKAPNLLIYTASSLQSGVPSRFIGSGSGTDFTLTISSLQPEDFATYCCQQSYSTPPTFGQGTKVEIR",1.95
5,"5317-7 (antibody, V domains shown) VH: EVQLVGSGGGLVQPGGSLRLSCAASGFTFSTYWMSWVRQAPGKGLEWVADIKQDGSEKYYVDSVKGRFTISRDNAKNSLYLQMNSLRVEDTALYYCARGGLWGTFDYWGQGTLVTVSS VL: EIVLTQSPGTLSLSPGERASLSCRASQSVSSSYLAWYQQKPGQAPRLLIYGASSRATGIPDRFSGSGSGTDFTLTISRLEPEDFAVYWCQQFAYSLYTFGQGTKLEIK",10.5
6,"5317-6 (antibody, V domains shown) VH: QLQLQESGPGLVKPSETLSLTCTVSGASISSSSYYWGWIRQPPGKGLEWIGTMYYRGSTDYNPSLKSRVTISVDTSKNQFSLRLSSVTAADTAVYYCARRVPGDYYCLDVWGKGTTVTVSS VL: DIQLTQSPSSLSASVGDRVTVTCRASQSISDYLNWYQQKPGKAPKLLIYAASSLQTGVPPRFSGSGSGTDFTLTISSLQPEDFATYYCQQSFSARVPTFGGGTKVESK",1.66
7,"5317-5 (antibody, V domains shown) VH: QVQLVQSGAEVKKPGSSVKVSCKASGGTFSSYPITWVRQAPGQGFEWMGKIIPILGIADYAQSFQGRVTITADKSTTTAYMELSSLRSEDTAVYYCAREKGYSSSSSATYYLDFWGQGTLVTVSS VL: QSVLTQPPSVSGAPGQRVTISCTGSNSNIGAGYDVHWYQQLPGTAPRLLIYRNSNRPSGVPDRFSGSKSGTAASLAISGLQAEDEADYYCQSYDSSLTALVFGGGTKLTVL",0.0826
8,"antibody 5317-4 (antibody, V domains shown) VH: QVQLRLWGAGLLKPSETLSLTCAVSGGSFIDYYWTWIRQPPGKGLEWIGEINHFGGSGYNPSLKSRVSISVDTSKNQFSLRLNSVTAADTAIYYCARKPLLHSSVNPGAFDIWGQGTMLTVSS VL: EIVLTQSPGTLSLSPGERAALSCRASQSVAGTYLAWYQQKPGQAPRLLIYGASSRATGIPDRFSGSGSGTDFTLTISRLEPEDFAVYYCQQYATSPRTFGQGTQLEIR",1.78
9,"53182-3 (antibody, V domains shown) VH: EVHLVESGGGLVQPGGSLRLSCAASGFTVSSNYMSWVRQAPGKGLEWVSVIYSGGNTYYADSVKGRFTISRDNSKNTLYLQMNSLRAEDTAVYYCARDRRIIGYYFGMDVWGRGTTVTVSS VL: QSALTQPASVSGSPGQSITISCTGTSSYVGSFDLVSWYQQHPGKAPKLMIYEVSKRPSGVSNRFSGSKSGNTASLTISGLQAEDEADYYCCPYADTWVFGGGTKLTVL",8.32
10,"53182-6 (antibody, V domains shown) VH: EVQLVESGGGLVQPGGSLRLSCAASGFTVSDNYMSWVRQAPGKGLQWVSVIYSGGNTYYADFVKGRFNITRDDSKNMLYLQMNSLRREDTAVYYCVRDRRIVGYYFGLDVWGQGTTVTVFS VL: QSALTQPASVSGSPGQSITISCTGTSSDVRNYNLVSWYQQHPGKAPKLMIFEDSKRPSGVSNRFSGSKSGNTASLTIAGLQPEDEADYYCCSYATTWVFGGGTKVTVL",0.935
11,"53182-9 (antibody, V domains shown) VH: EVQLVESGGGLILPGGSLRLSCAASGVTVSSNYMNWVRQAPGKGLEWVSVIYSGGSTFYADSVKGRFTISRDNSKNTLYLQMNSLRAEDTAVYYCARGGWPSGDTFDIWGQGTMVTVSS VL: DIQLTQSPSFLSASVGDRVTITCRASQGISSYLAWYQQKPGKAPKLLIYAASTLQSGVPSRFSGSGSGTEFTLTISSLQPEDFATYYCQQLNSYPEITFGPGTKVDIK",0.0475
12,"53182-1 (antibody, V domains shown) VH: EVQLVESGGGLIQPGGSLRLSCTASGITVSTNYMTWVRQAPGKGLEWVSIIYSGGSTYYADSVKGRFTISRDNSKNTLYLQMNSLRADDTAVYYCTRGGWPSGDTFDIWGLGTMVTVSS VL: DIQLTQSPSFLSASVGDRVTITCRASQGISSYLAWYQQKPGKAPKLLIYGASTLQSGVPSRFSGSGSGTEFTLTISSLQPEDFATYYCQQLNSYPEITFGPGTKVDIK",2.81
13,"5317-1 (antibody, V domains shown) VH: QMQLVQSGPEVKKPGTSVKVSCKASGFTFSTSVVQWVRQPRGQRLEWIGGIVVGRGNTKYAQNFQERVTITRDMSTSTAYMELSNLRSEDTAVYYCAADPFADYWGQGTLVTVSS VL: not shown",0.0434
